From patent US20200276130A1 (WISCONSIN ALUMNI RESEARCH FOUNDATION, published 2020)
Values belong to the binder of their own block, whether it stands above or below them.

What was measured:
[1] = molecular target: T1, endogenous IP3R3 (inositol 1,4,5-trisphosphate receptor 3) (human, UniProt Q14573 1-2671); assay: anti-Flag M2 resin immunoprecipitation from MCF7 cells, Western blot
T1 construct: Endogenous protein co-precipitated from cell lysate; also called ITPR3

[2] = molecular target: T2, endogenous IP3R1 (inositol 1,4,5-trisphosphate receptor 1) (human, UniProt Q14643 1-2758, limits assumed); assay: as above
T2 construct: Endogenous protein co-precipitated from cell lysate; also called ITPR1

[3] = molecular target: T3, GST-CARM1 fusion protein (glutathione S-transferase tagged co-activator associated arginine methyltransferase … (UniProt Q86X55 1-608)); assay: in vitro interaction assay, in vitro translated Flag-PKM2 truncation with GST-CARM1
T3 construct: Expressed in E. coli BL-21, purified on glutathione sepharose; also called GST tagged CARM1; not shown: glutathione S-transferase (GST) tag
T3 sequence (looked up): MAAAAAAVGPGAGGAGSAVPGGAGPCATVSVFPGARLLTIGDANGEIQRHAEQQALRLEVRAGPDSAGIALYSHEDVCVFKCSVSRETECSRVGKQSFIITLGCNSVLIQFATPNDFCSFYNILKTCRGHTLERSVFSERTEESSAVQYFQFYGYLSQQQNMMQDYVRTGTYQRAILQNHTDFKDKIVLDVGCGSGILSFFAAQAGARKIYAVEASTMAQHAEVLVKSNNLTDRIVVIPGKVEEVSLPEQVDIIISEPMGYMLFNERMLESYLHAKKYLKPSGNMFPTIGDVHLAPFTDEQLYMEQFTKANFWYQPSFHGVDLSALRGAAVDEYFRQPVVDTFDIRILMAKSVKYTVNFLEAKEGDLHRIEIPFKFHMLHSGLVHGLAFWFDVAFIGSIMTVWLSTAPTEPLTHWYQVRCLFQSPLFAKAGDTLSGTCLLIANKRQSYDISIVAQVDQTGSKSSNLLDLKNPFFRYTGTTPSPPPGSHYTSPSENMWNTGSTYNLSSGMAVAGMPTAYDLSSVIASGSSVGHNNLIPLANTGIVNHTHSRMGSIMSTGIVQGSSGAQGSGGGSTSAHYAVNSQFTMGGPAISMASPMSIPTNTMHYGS
Method: Flag-tagged full length PKM2 and its truncations constructs were translated by T7 Quick Coupled Translation/Transcription system (Promega). […] The beads were washed 4 times with binding buffer, and recombinant proteins were eluted with 500 μg/ml 3× Flag peptides. Samples were analyzed by SDS-PAGE and Western blotting.

endogenous HSPA9 = molecular target: T4, endogenous HSPA9 (human, UniProt P38646 47-679); assay: anti-Flag co-immunoprecipitation from MCF7 cell lysates, Western blot
T4 construct: Endogenous protein co-precipitated from cell lysate
T4 sequence (P38646 47-679 limits assumed): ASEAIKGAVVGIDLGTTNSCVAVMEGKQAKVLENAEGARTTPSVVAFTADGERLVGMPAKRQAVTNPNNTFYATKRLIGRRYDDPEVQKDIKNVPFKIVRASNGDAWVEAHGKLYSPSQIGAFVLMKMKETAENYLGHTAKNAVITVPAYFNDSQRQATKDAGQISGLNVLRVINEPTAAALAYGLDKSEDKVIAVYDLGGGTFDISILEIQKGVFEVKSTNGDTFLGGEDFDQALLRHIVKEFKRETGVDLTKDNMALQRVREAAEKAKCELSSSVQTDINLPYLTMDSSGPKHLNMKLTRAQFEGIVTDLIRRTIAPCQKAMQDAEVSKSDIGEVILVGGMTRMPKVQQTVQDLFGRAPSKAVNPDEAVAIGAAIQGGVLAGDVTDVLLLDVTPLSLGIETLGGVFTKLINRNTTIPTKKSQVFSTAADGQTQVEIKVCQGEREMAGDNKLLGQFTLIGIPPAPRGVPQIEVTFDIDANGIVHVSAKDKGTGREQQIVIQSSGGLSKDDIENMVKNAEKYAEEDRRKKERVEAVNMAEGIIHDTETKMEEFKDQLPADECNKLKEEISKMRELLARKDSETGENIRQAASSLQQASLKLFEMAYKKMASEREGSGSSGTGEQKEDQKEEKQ

T2 sequence (Q14643 whole entry): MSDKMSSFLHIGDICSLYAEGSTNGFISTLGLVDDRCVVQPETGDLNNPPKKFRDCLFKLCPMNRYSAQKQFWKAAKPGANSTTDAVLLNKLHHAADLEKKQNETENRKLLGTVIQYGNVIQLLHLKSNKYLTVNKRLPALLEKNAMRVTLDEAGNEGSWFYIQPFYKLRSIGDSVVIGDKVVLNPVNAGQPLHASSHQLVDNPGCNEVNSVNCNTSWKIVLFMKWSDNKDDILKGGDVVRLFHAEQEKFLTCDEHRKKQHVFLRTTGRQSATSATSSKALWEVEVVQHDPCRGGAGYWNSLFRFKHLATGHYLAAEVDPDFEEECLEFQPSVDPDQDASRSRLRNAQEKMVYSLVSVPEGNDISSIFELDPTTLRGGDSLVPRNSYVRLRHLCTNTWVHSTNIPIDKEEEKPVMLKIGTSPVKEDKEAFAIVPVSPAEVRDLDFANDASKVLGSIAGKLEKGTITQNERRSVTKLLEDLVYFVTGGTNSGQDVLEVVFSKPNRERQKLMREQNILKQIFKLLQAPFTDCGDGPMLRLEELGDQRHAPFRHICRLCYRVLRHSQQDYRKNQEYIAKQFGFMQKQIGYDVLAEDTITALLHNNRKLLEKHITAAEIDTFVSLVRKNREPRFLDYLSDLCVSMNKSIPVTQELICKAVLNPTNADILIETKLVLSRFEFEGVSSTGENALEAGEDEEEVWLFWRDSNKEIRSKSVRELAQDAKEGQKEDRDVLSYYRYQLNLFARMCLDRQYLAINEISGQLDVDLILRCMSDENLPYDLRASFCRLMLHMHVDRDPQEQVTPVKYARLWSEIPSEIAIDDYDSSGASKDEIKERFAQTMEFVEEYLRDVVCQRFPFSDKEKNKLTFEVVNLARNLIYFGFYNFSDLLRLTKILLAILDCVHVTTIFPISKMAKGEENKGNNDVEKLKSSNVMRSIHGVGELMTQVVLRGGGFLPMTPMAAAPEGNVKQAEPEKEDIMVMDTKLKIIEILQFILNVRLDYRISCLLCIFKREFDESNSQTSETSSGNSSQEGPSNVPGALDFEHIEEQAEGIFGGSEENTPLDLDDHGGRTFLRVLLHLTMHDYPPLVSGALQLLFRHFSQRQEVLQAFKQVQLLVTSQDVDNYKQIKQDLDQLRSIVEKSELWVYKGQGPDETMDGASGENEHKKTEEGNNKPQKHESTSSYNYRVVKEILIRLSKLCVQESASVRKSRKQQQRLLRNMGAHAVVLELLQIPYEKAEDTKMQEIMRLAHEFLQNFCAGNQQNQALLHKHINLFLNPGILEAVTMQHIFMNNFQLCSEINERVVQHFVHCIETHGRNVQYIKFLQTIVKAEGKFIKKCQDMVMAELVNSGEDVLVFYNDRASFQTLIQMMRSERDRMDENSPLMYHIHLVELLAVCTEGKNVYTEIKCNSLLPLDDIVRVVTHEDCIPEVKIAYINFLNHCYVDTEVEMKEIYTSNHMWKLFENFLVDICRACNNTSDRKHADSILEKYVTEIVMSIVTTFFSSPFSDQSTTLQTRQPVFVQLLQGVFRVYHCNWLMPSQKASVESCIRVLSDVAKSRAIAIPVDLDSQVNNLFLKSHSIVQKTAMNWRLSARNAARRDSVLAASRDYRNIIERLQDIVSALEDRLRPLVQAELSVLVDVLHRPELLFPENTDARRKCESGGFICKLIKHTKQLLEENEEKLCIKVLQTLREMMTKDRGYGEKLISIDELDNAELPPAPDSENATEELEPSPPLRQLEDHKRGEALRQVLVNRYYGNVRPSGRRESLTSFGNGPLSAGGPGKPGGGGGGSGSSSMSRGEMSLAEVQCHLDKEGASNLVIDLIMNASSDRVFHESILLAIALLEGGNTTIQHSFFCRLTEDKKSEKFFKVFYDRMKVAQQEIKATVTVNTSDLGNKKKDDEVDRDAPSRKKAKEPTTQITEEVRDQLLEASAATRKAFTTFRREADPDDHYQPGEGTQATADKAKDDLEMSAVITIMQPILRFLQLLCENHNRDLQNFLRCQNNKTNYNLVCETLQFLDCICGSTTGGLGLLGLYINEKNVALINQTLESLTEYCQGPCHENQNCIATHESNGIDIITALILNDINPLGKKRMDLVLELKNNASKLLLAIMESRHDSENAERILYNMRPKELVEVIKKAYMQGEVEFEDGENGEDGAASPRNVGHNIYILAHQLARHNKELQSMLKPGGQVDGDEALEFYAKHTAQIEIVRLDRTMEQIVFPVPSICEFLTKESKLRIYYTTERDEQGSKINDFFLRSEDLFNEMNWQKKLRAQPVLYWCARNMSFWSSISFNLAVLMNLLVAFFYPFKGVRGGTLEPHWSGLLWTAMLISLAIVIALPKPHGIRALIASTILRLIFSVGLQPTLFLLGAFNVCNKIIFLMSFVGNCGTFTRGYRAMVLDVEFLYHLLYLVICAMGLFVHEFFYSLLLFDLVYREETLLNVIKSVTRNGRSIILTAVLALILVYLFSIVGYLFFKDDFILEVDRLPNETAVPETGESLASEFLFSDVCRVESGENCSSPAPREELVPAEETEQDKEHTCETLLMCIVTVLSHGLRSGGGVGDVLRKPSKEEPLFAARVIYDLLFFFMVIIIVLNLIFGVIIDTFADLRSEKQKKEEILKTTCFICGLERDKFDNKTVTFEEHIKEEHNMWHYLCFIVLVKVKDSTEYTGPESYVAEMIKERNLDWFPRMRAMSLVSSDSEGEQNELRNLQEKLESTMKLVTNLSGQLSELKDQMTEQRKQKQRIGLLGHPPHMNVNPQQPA

binding result [1]: no binding
binding result [2]: no binding
B1: Flag-tagged PKM2^mut (R445K, R447K and R455K), methylation-defective PKM2 (enzyme)
chain: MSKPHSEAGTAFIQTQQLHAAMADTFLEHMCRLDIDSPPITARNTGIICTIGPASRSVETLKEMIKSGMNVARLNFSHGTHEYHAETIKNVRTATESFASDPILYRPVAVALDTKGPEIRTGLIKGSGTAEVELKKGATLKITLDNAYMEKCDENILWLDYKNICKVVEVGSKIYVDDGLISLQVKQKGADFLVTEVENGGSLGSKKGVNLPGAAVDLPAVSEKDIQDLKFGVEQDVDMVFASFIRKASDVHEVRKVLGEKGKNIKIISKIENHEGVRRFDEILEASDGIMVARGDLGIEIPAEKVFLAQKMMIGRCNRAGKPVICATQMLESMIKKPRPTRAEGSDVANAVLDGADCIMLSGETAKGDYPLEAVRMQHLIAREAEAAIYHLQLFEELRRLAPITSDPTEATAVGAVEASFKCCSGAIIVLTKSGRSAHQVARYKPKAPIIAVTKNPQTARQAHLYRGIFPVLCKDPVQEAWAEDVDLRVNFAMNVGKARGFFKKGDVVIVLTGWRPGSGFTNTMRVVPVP
notes: Stably expressed in MCF7 (and MDA-MB-231) PKM2 KO cells; precipitated with anti-Flag M2 resin; also called PKM2 R445/447/455K; not shown: left out

binding result [3]: no binding
B2: truncated Flag-PKM2 with truncation of both the C domain and the N/A1 domain (enzyme)
chain: not shown
notes: In vitro translated; also called 48 (as printed, probably delta-8); not shown: Flag tag

binding result (endogenous HSPA9): no binding
B3: Flag-tagged PKM1 (pyruvate kinase M1) (enzyme)
chain: not shown
notes: Purified recombinant protein in the GST pull-down; expressed in MCF7 or HEK293T PKM2 KO cells in the co-immunoprecipitations; also called Flag-PKM1; recombinant PKM1; not shown: Flag tag
